# Source: the DeepSol protein solubility set
# Assay: soluble on expression in E. coli; label from the status in PepcDB or PDB records
row,Sequence,soluble on expression in E. coli
1,MMNMITVIGFGSFGRKVVNFIKNKEPITIIDKNIDDADDLVKEGVTVIVGDATQDEVLKKAKIENADIVLILTNEPEVNRRIAERVCELSPNSYKIARAIPRYPELYMGLNIDKIINILESGAKDIAKEVEDAKLKRKLMQLKSVLIEGKKRCMKLEKTEEEKKAPLLILTHINPDPDAIASAMALKTLAERWGVDSDIAYGGNIGYDENKAMINLLGIKLLNVEDIDLDNYCVIAVIDTSTSKQLPIELPNIDIIIDHHNNTDLTAKYMDVRPEVGATASILTQYLMELDIEPSRNLATALFYGIQSDTDYFKRETSKLDFEAAAYLQSYIDASILNMIENPEISTEVMEVLAKAVMNRRVVKGNIALAYVGEISNRDALPKAADFLLKMEGISTTFVFGIVGDEIHISARTKDLRLNLGEILNKAFGGGGHQTAAAAKIPLGIFKAVSDKEALRKLVEEAIRAKILEVIGIKEEEK,not soluble
2,SAMNGFERELQSRVLSVIPHGELEGVNGPLQNYTKTMNQALQHEHVVAAAPYVRFTGLAEKGSKLKAIEVRGVDPAYEQAVSSMSDFIDPEAWQNFYSGQQQVILGRGVANELKVQVGDYVTLMIPQTGGTNKVQAPKRVRVKVAGFLTLNGQIDHSLALVPLADAQQYVRLGDGVTGISLKTDDVLDAPSIVREVGNLVNVYVYLKSWQQQFGFLYRDIQLVRT,soluble
3,MNAYCLTLNDTNIAIEKKDIKHLHISVCPPDGSVHVSCPLALNDESLRLSLIKRLHWIKEQQQNFLNQNRQSQRGMLERESHYLFGKRYLLKIEHTTKKHFVLQNPKYLILHVHQKTSLENRLKVLENYYRQVLREKIQTCINRYEKILNESIQSFKIQKMKRIWGSCNIAKRALLFNLELAKVPRKGIEYVVVHELLHLKTRHHNEYFRDLLSLYLPNWQRAKASLKETYLERSLEHHHHHH,not soluble
4,MGSDKIHHHHHHMDEVSVWRRAWTYVVTTLAQSLPNRCLLCHQTVIEGSGVCSLCLQRCLYHGPVCLGCGRSLVNDGAFCGACRVLGALPVIAPCSYHQGLGASIAAIKYQGQFAALDVLCRALMARVTQLTEEGEIPPVSLLLPVPLHPKRLKTRGFNQAYEIALLLSKLSGIPLCDDLLRRRRDTQPQAGLTGKARRKNLLGAFELTGSCHQGSVALVDDVVTTGSTANEIATMLQLQGVRVQVWCLARAEAPGLLDTFS,not soluble
5,MGSSHHHHHHSSGLVPRGSHMMRKQRIVIKISGACLKQNDSSIIDFIKINDLAEQIEKISKKYIVSIVLGGGNIWRGSIAKELDMDRNLADNMGMMATIINGLALENALNHLNVNTIVLSAIKCDKLVHESSANNIKKAIEKEQVMIFVAGTGFPYFTTDSCAAIRAAETESSIILMGKNGVDGVYDSDPKINPNAQFYEHITFNMALTQNLKVMDATALALCQENNINLLVFNIDKPNAIVDVLEKKNKYTIVSK,soluble
6,MEVVIIAFLTQKEFEDLGFDEVEDFEKMEKRASHAVNLYCRNRYDYKDLKKEIALVQKAVKRAIAYQIAYLNDSGVMTAEDKQSFAGISLGRTSISYTVGHGQGSQQKTLADRFNLCLDAENELLAVGLGYTGISYDR,not soluble
7,MAHHHHHHMRNSFFPMLCEKQSTPELEAMPLYLPDTVVLQLHRHDGEAEFADYMDANSLTFVALGDAERPALCGIDATAQLHYEGAQRTLVSAAGIVSGIRRRRLRVPFGMSELSELLRRAYNTEKGNRNNSLTGSTETVLLTHLFSDAVWAEESFHCLSTTRRVGNILGSTGIGSATRDLAVERWRLDQDIMELRDELMIARTVYDYRHCGYESNRSISGMEEEGMKRVNAIQSNREEERKWQLSVFCERAKHEAEKMIKELEQRGGATLDELQKTLEAKKRESSALQADRENRIWEYEHTLEKIRTRKQDEESASERLRQAMQQLEQELSLRQSAIETREQQLEMVQLDGARGREAIMRERHSIEAVSPAEAVDPSD,not soluble
8,MRVIVTEYQPAWVEQFEEEAQALKQILKENCLKVEHIGSTSVPNLAAKPIIDFLVIVEEIEKVDLLQWEFERIGYEYMGEFGLSGRRYLRKGPIKRTHHVHIYQFDNTQEILRHLAFRNYLRENPAIATTYGTLKKQLAQAHPDSIDKYMDGKDAFIKKIEKEALKKYWE,soluble
9,MGSDKIHHHHHHMINAPKTCTCYNGCVGGPSRPAGHPRRRTDKPRWRWTFDSGRRTPSVRIRQLVRGTVPWESLEAVARELGARYDQDTVRVVFLDADNWLSTPCVVNDRWFVKVISEQNALVHAVFTGARNLGMFSSGTEGFFERFDGPVAMAEHERDATRDLRALGVNAPRPIEAFEVDGFGVLVLDYLPAFTPLDEVPAADVAAHAPAVFEALSTMHANGVAHGDLRAENVLVSDGDLYFIDATNVDTDAIADARAYDLACALAALEPLIDAQTVVRIARESYTVDEAAADVSTTMDALLRAQDFLGFVQLRPDHDFDTAALTGHIGMAATNAQRGL,not soluble
10,MNKTYMLDTCICSFIMREQPEAVLKRLEQAVLRGQRIVVSAITYSEMRFGATGPKASPRHVELVDAFCARLDAILPWDRAAVDATTEIKVALRMAGTPIGPNDTAIAGHAIAAGAVLVTNNTREFERVPGLVLEDWVR,not soluble
11,MAHHHHHHMGTLEAQTQGPGSMGTSQEFETSSLKTLPLYELHEKAGAKFGAFAGWRMPLTYPLGVLKEHLHTRAHAGLFDISHMKLIAVEGPKAVEFLSYALPVDAALLKIGQSRYSYLLNERAGILDDLILTRLAECRFMLVANAGNAQADFAELEKRAFGFECQVIALERVLLALQGPQAAAVLADAGLPGNELLFMQGFEPQQDWFITRSGYTGEDGFEIALPIGCARALAEKLLGDSRVEWVGLAARDSLRLEAGLCLHGNDITPDTTPIDAALTWAVPKNVREKAQFYGAKAFLESLQKGPSRCRVGLKPQTRQPIRAGAVLFDNEGNRIGVVTSGGFGPSFDGPVAMGYVPVAWKVEGTEVFTELRGKKIALSVHSLPFVEQRYFKG,soluble
12,MDWHCVSPDGCERSEELQRIDRAYSTDYEWEFASTVDDSFEEYAMRILTDSLGSGCAWLYDLTLLGYNLQRSRQCYTVAGFELELSIPNEDPATFSEWVVVGRDIDVLGEE,not soluble
13,MSLSRITTDQLRHAVLDRGSFVSWDSEPLAVPVADSYARELAAARAATGADESVQTGEGRVFGRRVAVVACEFDFLGGSIGVAAAERITAAVERATAERLPLLASPSSGGTRMQEGTVAFLQMVKIAAAIQLHNQARLPYLVYLRHPTTGGVFASWGSLGHLTVAEPGALIGFLGPRVYELLYGDPFPSGVQTAENLRRHGIIDGVVALDRLRPMLDRALTVLIDAPEPLPAPQTPAPVPDVPTWDSVVASRRPDRPGVRQLLRHGATDRVLLSGTDQGEAATTLLALARFGGQPTVVLGQQRAVGGGGSTVGPAALREARRGMALAAELCLPLVLVIDAAGPALSAAAEQGGLAGQIAHCLAELVTLDTPTVSILLGQGSGGPALAMLPADRVLAALHGWLAPLPPEGASAIVFRDTAHAAELAAAQGIRSADLLKSGIVDTIVPEYPDAADEPIEFALRLSNAIAAEVHALRKIPAPERLATRLQRYRRIGLEGHHHHHH,not soluble
14,MGSDKIHHHHHHMQPLLQLQGITKSFPGVKALSGAALNVYPGKVMALVGENGAGKSTMMKVLTGIYRKDAGSIHFLGQEVDFNGPKASQEAGIGIIHQELNLIPQLTIAENIFLGREFTNRFGRIDWNKMYAEADKLLKRLNLRYDSRRMVGDLSIGDQQMVEIAKVLSFESKVIIMDEPTDALTDTETASLFSVINELQSQGCGIVYISHRLKEIFEICDDITVFRDGQFIGERPVSDLEEDTLIEMMVGRKLEDQYPRSNKAPGEVRLKVQNLSGPGVDSVSFTVRKGEILGVAGLMGAGRTELMKILYGALPRTGGNVTLDGRDVVTRKPQDGLANGIVYISEDRKRDGLVLGMSVKENMSLTALRYFSHAGGRLKHAEEQLTVADFIRLFNVKTPSMEQPIGLLSGGNQQKVAIARGLMTRPNVLILDEPTRGVDVGAKKEIYQLINQFKEEGLSIILVSSEMPEVLGMSDRIIVMHEGRLSGDFPIEQATQEALMAAAVGKQYGAKQE,not soluble
15,MTAPGSMPLTVIGGFLGAGKTTLLNYLLKVQHSERVLVMVNDFGSINIDAELLDQGRHDRPGVVRLQNGCVCCSIGGDLMQAFLQVMSMPDRPDRIIVEASGVADPTRIAQIGRVSGGLSDEGVITLVDASAVRTLAADKYVGDIVRQQILSADIVLLNKLDLSSDAEIVETRAWLRDLAPRTRVVSCIHGEVDAVSVLGIGAGKVAPDAAGGPVDVPVPDLRRASTRHADTFHSSTLATAHRFDRRRIEYALDALPQTVLRGKGFVELEGEATPALLQLCGSRWTLDPVSTPAPPAGTHLVFIATGGRGVPRFDAPSHFEQALASRDAASADTSNLEHHHHHH,soluble
16,MEPAAGSSMEPSADWLATAAARGRVEEVRALLEAGALPNAPNSYGRRPIQVMMMGSARVAELLLLHGAEPNCADPATLTRPVHDAAREGFLDTLVVLHRAGARLDVRDAWGRLPVDLAEELGHRDVARYLRAAAGGTRGSNHARIDAAEGPSDIPD,soluble
17,MSPENKICMEQSEDGDLDAGDELFEEVDGDGKGEIFANRELLNIDHVPDENRIVGRDEHITELANEIGPAVTGSPPNSVILYGKTGSGKSLVANHVMERARREAQRRDRRLATVTVDCAQSRGEADTVQTIADKINRSTSGVTVPTRGISTNEYYNRLWQILGTEYDAALITLDEVDRLSDDDILMILSRAREAGKVDVPIGIISISNKVNFREQMTERVKSSLGHNEMIFDPYDGEQLRQILENRKDAFQEDILMPGVIPKTAALAAQRHGDARKAIRLLRHAGDYAKTNNIGTVKESHLELAQEQAEVERLKELISGLPPHSKYVLYALANLTDGTTNSNDWFRTTVIYDVYEEVCKTEATDTLTTDTIRGLLNELAFLEITESNQEHGGMGKGTYKEHRLLWDPNVVFKMNPGSAQVDTDR,not soluble
18,AHHHHHHGSRERGVAFFSGGKDGLYALYLAEKEGIEVPYLLTLKTSIGLSPHWENLSSLKALAENMGKKLLTFDMKYGSKALAEFISSLDVDYIIAGDVFLEDHLKWINLLAEKAGIKSFEPLWGKNTLELAKEMLNAGFKYSIIAVDKNKLEKTWLGYTFSSTRDIEIFIYENPTIDPLGEGGEFHTITLSSPLFKDEFTLEKISVEESERYWWMRFRVVGNDIKNVRVKGHNSRKDG,not soluble
19,MGSDKIHHHHHHMDVFSANQSAQGIVEEAQQANALDHPAAFEIPRSAVIDIKDSISGRTYPLFIKLPKSYRSQPNKRYPVIYLTDSWYSFQIVSGATRFPMNFNKMDEAIIVAISYSEGSRGSSSRNRDYTPSVNPAWKDITGGAAAHRDFIETTVFDYVERHYRAEAGSRIFVGNSFGGLFGTYVLMSKPEMFDSYILGSPSYWWDKGYIFELEKQFRKSAKPVSAKVFIGIGELEKKVNGVGEDMVKEAQAFYDLMQQWSSRPQTKLLIIPEADHQTAFPTTAIHGLQWILGKCPPKGNCLQGNLN,not soluble
20,MPRRRGSSSSSSAAGGSGGGGGFGFSSLRRELHLHNFFRTSSPSASSTSRTPPAALPPRTSAVTIPGSNHKLTSSASSYHPPRELTVSTFSAGSATAADGLGGAHLTPSLSSSVHARRESFLYRASDDLREASSLRPVSRASSIASNEHGYVILYIFL,not soluble
21,MSLLNTYEPWKFAFSQEETDFNNLKEGAWGIIGVPFDSTTSYHPGSRFGPIVVREASYGFEKYNTIFNTQLDNIFYDFGDVNVVFGNCKKTCDIIEDTVNELSDLKIKPLTIGGEHSLTIGVLNSLTKKYDDLTVVHLDAHRDLADTFIGELYSHASVMKRVHEMGVKELVQIGIRSASKEEEDFVKNQSNITTFKNNDVFHHLDNIEYYLSIIDTPIYLSIDMDVFDPSIAPTVGNPTPNGIAYGHIEAMLQTLSLKNVVGMDVVETAGDRLGDITAVSASKIIYDFLSLLEGHHHHHH,soluble
